The target in one assay is ZYG11B-EloBC (Homo sapiens, UniProt Q9C0D3). Kind of assay: MBP pull-down with substrate receptor module ZYG11B-EloBC. Format: binding. The following applies: R466A mutation of ZYG11B, recombinant purified proteins, Figure S9A. The procedure: Peptides corresponding to […] and […] were appended to the N terminus of maltose-binding protein (MBP) and cloned into pET-28a containing an N-terminal His6 tag followed by a TEV protease cleavage site. Fusion proteins were purified by Ni-NTA chromatography, digested with TEV protease, and passed over Ni-NTA resin again to remove TEV and the cleaved His6 tag. Final purification was performed by size-exclusion chromatography. The resulting proteins contained MBP fused to N-terminal Gly/N-degron overhangs. For pulldown experiments, approximately 100 μg MBP fusion protein was immobilized on 50 μL amylose resin and incubated with prey protein at a 1:1 molar ratio for 1 h at 4°C. Resin was washed three times, and bound proteins were eluted in sizing buffer supplemented with 20 mM maltose. Samples were analyzed by SDS-PAGE and Coomassie staining. Pulldown efficiency was quantified as the ratio of MBP–NLRP1 degron signal to ZYG11B signal in the same gel lane. […]
incubation of full-length Cyclin B1 without Gly/N-degron with ZYG11B–EloBC (top). SDS–PAGE analysis of the indicated fractions from the Superose 6 column (dashed lines) confirms complex formation (bottom) C, fluorescence anisotropy binding of ZYG11B-EloBC to indicated fluorescein-labeled peptides (left) and fitted equilibrium dissociation constants (right). […]

In another assay the test system is NLRP1 inflammasome. Format: cell-based, human.

Residue numbers refer to the chain shown, from its start. Numbers in names are those of the source.

Sequence of ZYG11B-EloBC (Q9C0D3 whole entry, the tested form may be a part): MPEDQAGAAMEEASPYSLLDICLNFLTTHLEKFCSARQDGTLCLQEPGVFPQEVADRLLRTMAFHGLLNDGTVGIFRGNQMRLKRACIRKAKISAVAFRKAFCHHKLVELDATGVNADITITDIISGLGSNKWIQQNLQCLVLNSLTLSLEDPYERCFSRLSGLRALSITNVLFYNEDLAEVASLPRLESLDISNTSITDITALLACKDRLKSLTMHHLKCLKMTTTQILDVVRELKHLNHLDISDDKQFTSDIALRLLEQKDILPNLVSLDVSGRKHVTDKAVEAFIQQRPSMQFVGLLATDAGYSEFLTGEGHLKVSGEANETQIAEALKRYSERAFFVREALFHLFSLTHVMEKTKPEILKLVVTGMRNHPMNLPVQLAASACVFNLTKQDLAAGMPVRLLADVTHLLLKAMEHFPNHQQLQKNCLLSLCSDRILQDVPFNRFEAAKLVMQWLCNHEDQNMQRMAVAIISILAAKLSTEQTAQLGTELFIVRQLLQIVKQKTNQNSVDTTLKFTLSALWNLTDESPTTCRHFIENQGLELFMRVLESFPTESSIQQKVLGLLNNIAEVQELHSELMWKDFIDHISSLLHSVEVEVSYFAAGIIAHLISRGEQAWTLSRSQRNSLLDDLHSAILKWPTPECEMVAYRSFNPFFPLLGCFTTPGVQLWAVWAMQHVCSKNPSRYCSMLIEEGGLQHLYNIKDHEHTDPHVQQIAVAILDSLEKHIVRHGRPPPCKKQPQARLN
Sequence of ZYG11B-EloBC (Q15370 whole entry partner, the tested form may be a part): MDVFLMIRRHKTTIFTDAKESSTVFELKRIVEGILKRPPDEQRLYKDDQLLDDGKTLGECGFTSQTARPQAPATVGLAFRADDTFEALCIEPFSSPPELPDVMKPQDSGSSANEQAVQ
Sequence of ZYG11B-EloBC (Q15369 17-112 partner limits assumed): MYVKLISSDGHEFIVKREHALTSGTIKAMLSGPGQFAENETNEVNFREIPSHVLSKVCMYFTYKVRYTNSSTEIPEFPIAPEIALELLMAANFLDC

B1: NLRP1 Gly/N-degron: C-terminal fragment generated by 3C cleavage, which exposes the Gly/N-degron, begins at glycine-131 (protein)
chain: GSERRVLRQLPDTSGRRWREISASLLYQALPSSPDHESPSQESPNAPTSTAVLGSWGSPPQPSLAPREQEAPGTQWPLDETSGIYYTEIREREREKSEKGRPPWAAVVGTPPQAHTSLQPHHHPWEPSVRESLCSTWPWKNEDFNQKFTQLLLLQRPHPRSQDPLVKRSWPDYVEENRGHLIEIRDLFGPGLDTQEPRIVILQGAAGIGKSTLARQVKEAWGRGQLYGDRFQHVFYFSCRELAQSKVVSLAELIGKDGTATPAPIRQILSRPERLLFILDGVDEPGWVLQEPSSELCLHWSQPQPADALLGSLLGKTILPEASFLITARTTALQNLIPSLEQARWVEVLGFSESSRKEYFYRYFTDERQAIRAFRLVKSNKELWALCLVPWVSWLACTCLMQQMKRKEKLTLTSKTTTTLCLHYLAQALQAQPLGPQLRDLCSLAAEGIWQKKTLFSPDDLRKHGLDGAIISTFLKMGILQEHPIPLSYSFIHLCFQEFFAAMSYVLEDEKGRGKHSNCIIDLEKTLEAYGIHGLFGASTTRFLLGLLSDEGEREMENIFHCRLSQGRNLMQWVPSLQLLLQPHSLESLHCLYETRNKTFLTQVMAHFEEMGMCVETDMELLVCTFCIKFSRHVKKLQLIEGRQHRSTWSPTMVVLFRWVPVTDAYWQILFSVLKVTRNLKELDLSGNSLSHSAVKSLCKTLRRPRCLLETLRLAGCGLTAEDCKDLAFGLRANQTLTELDLSFNVLTDAGAKHLCQRLRQPSCKLQRLQLVSCGLTSDCCQDLASVLSASPSLKELDLQQNNLDDVGVRLLCEGLRHPACKLIRLGLDQTTLSDEMRQELRALEQEKPQLLIFSRRKPSVMTPTEGLDTGEMSNSTSSLKRQRLGSERAASHVAQANLKLLDVSKIFPIAEIAEESSPEVVPVELLCVPSPASQGDLHTKPLGTDDDFWGPTGPVATEVVDKEKNLYRVHFPVAGSYRWPNTGLCFVMREAVTVEIEFCVWDQFLGEINPQHSWMVAGPLLDIKAEPGAVEAVHLPHFVALQGGHVDTSLFQMAHFKEEGMLLEKPARVELHHIVLENPSFSPLGVLLKMIHNALRFIPVTSVVLLYHRVHPEEVTFHLYLIPSDCSIRKAIDDLEMKFQFVRIHKPPPLTPLYMGCRYTVSGSGSGMLEILPKELELCYRSPGEDQLFSEFYVGHLGSGIRLQVKDKKDETLVWEALVKPGDLMPATTLIPPARIAVPSPLDAPQLLHFVDQYREQLIARVTSVEVVLDKLHGQVLSQEQYERVLAENTRPSQMRKLFSLSQSWDRKCKDGLYQALKETHPHLIMELWEKGSKKGLLPLSS
Consider B1, for which the “binding to ZYG11B-EloBC R466A mutant versus WT” value in the assay with ZYG11B-EloBC is given as “relatively strong reduction”.

B2: E133K: E133K mutation of NLRP1 (residue E3 of the Gly/N-degron) (protein)
chain: B1 chain with E3K
Turning to B2, the “inflammasome activation of NLRP1 mutant upon HRV 3Cpro” value in the assay on NLRP1 inflammasome is on record as “reduced inflammasome activation”.

These data come from article PMC13379236 (Cell reports, 2026).
